Earlier results on one substance are cited in article PMC4536614.

As usually defined, the Kd is the equilibrium constant for the complex coming apart.

In this series the target is C3d C3d (Homo sapiens) (UniProt P01024).
C3d C3d (Homo sapiens), sequence (P01024 1002-1303): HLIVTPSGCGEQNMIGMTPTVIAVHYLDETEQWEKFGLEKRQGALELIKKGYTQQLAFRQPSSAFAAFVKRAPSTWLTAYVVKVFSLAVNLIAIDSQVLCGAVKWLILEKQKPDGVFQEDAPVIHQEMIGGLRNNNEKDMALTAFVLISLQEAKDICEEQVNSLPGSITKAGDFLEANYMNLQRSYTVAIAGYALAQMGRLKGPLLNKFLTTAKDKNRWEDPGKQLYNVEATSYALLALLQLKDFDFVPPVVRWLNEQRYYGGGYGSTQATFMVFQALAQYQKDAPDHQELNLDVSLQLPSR

complement receptor 2 (CR2), sequence (P20023 21-971): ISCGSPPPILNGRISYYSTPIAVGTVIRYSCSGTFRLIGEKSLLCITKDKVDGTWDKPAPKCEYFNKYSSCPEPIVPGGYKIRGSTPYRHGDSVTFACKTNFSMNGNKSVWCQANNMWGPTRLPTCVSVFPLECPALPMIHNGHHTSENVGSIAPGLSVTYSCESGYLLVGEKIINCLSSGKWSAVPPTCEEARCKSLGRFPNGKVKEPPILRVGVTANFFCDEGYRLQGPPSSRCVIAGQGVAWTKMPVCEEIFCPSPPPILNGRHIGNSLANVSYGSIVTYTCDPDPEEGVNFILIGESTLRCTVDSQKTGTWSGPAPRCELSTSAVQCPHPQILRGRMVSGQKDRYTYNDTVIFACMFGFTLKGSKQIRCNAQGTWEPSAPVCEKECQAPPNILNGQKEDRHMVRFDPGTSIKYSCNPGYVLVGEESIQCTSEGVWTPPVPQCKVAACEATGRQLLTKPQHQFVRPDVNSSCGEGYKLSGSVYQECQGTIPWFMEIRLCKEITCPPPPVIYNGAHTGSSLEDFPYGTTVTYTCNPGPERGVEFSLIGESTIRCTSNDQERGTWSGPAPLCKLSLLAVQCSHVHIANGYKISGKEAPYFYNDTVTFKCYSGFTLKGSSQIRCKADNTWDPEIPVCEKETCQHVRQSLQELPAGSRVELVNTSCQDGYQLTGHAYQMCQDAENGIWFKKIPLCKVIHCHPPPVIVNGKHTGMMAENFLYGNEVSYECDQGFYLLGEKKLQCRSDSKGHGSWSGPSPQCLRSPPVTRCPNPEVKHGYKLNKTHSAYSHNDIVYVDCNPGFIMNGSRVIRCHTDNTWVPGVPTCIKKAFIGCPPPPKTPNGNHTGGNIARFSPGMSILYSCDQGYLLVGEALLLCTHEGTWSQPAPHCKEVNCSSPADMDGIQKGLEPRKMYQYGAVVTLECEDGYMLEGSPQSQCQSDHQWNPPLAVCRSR

As for “complement receptor 2 (CR2) (from UniProt P20023)”, the Kd was 500 nM.
